Reference: the supplement of paper PMC11316812
± gives the standard deviation of the averaged measurements.

Columns and labels:
hTERT-HMEC = test: percentage of EdU-negative (G0-arrested) nuclei per well, 72 h; higher = more G0 arrest; details: reference: sequence is the full UniProt precursor, the tested protein was the secreted form or ectodomain
MCF7 = test: as above; details: reference: sequence is the full UniProt precursor, the tested protein was the secreted form or ectodomain
[1] = protein concentration 0.01025 µM
[2] = protein concentration 0.1025 µM
[3] = protein concentration 0.0225 µM
[4] = protein concentration 0.01051 µM
[5] = protein concentration 0.1051 µM
[6] = protein concentration 0.01075 µM
[7] = protein concentration 0.1075 µM
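Further: secreted proteins added to cultured cells, EdU pulse at the end, nuclei found by Hoechst imaging, EdU status from nuclear versus surrounding ring intensity ratio, PBS as neutral control.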

Sequence	percentage of EdU-negative (hTERT-HMEC; [3]) [%]	percentage of EdU-negative (hTERT-HMEC; protein concentration 0.225 µM) [%]	percentage of EdU-negative (MCF7; [3]) [%]	percentage of EdU-negative (MCF7; protein concentration 0.225 µM) [%]	other results
MMLRLLSSLLLVAVASGYGPPSSHSSSRVVHGEDAVPYSWPWQVSLQYEKSGSFYHTCGGSLIAPDWVVTAGHCISRDLTYQVVLGEYNLAVKEGPEQVIPINSEELFVHPLWNRSCVACGNDIALIKLSRSAQLGDAVQLASLPPAGDILPNKTPCYITGWGRLYTNGPLPDKLQQARLPVVDYKHCSRWNWWGSTVKKTMVCAGGYIRSGCNGDSGGPLNCPTEDGGWQVHGVTSFVSAFGCNFIWKPTVFTRVSAFIDWIEETIASH	–	–	–	–	percentage of EdU-negative (hTERT-HMEC; [1]): 5.71 ± 1.5%; percentage of EdU-negative (hTERT-HMEC; [2]): 5.66 ± 0.78%; percentage of EdU-negative (MCF7; [1]): 25.2 ± 3%; percentage of EdU-negative (MCF7; [2]): 24.7 ± 1.6%
MLGPCMLLLLLLLGLRLQLSLGIIPVEEENPDFWNREAAEALGAAKKLQPAQTAAKNLIIFLGDGMGVSTVTAARILKGQKKDKLGPEIPLAMDRFPYVALSKTYNVDKHVPDSGATATAYLCGVKGNFQTIGLSAAARFNQCNTTRGNEVISVMNRAKKAGKSVGVVTTTRVQHASPAGTYAHTVNRNWYSDADVPASARQEGCQDIATQLISNMDIDVILGGGRKYMFRMGTPDPEYPDDYSQGGTRLDGKNLVQEWLAKRQGARYVWNRTELMQASLDPSVTHLMGLFEPGDMKYEIHRDSTLDPSLMEMTEAALRLLSRNPRGFFLFVEGGRIDHGHHESRAYRALTETIMFDDAIERAGQLTSEEDTLSLVTADHSHVFSFGGYPLRGSSIFGLAPGKARDRKAYTVLLYGNGPGYVLKDGARPDVTESESGSPEYRQQSAVPLDEETHAGEDVAVFARGPQAHLVHGVQEQTFIAHVMAFAACLEPYTACDLAPPAGTTDAAHPGRSVVPALLPLLAGTLLLLETATAP	5.09 ± 0.15	5.14 ± 0.97	27.28 ± 0.045	29.68 ± 0.2	–
MLKKPLSAVTWLCIFIVAFVSHPAWLQKLSKHKTPAQPQLKAANCCEEVKELKAQVANLSSLLSELNKKQERDWVSVVMQVMELESNSKRMESRLTDAESKYSEMNNQIDIMQLQAAQTVTQTSADAIYDCSSLYQKNYRISGVYKLPPDDFLGSPELEVFCDMETSGGGWTIIQRRKSGLVSFYRDWKQYKQGFGSIRGDFWLGNEHIHRLSRQPTRLRVEMEDWEGNLRYAEYSHFVLGNELNSYRLFLGNYTGNVGNDALQYHNNTAFSTKDKDNDNCLDKCAQLRKGGYWYNCCTDSNLNGVYYRLGEHNKHLDGITWYGWHGSTYSLKRVEMKIRPEDFKP	–	–	–	–	percentage of EdU-negative (hTERT-HMEC; [4]): 4.85 ± 0.3%; percentage of EdU-negative (hTERT-HMEC; [5]): 5.52 ± 0.31%; percentage of EdU-negative (MCF7; [4]): 24.6 ± 2.7%; percentage of EdU-negative (MCF7; [5]): 25.2 ± 0.9%
MKFFLLLFTIGFCWAQYSPNTQQGRTSIVHLFEWRWVDIALECERYLAPKGFGGVQVSPPNENVAIHNPFRPWWERYQPVSYKLCTRSGNEDEFRNMVTRCNNVGVRIYVDAVINHMSGNAVSAGTSSTCGSYFNPGSRDFPAVPYSGWDFNDGKCKTGSGDIENYNDATQVRDCRLVGLLDLALEKDYVRSKIAEYMNHLIDIGVAGFRLDASKHMWPGDIKAILDKLHNLNSNWFPAGSKPFIYQEVIDLGGEPIKSSDYFGNGRVTEFKYGAKLGTVIRKWNGEKMSYLKNWGEGWGFMPSDRALVFVDNHDNQRGHGAGGASILTFWDARLYKMAVGFMLAHPYGFTRVMSSYRWPRQFQNGNDVNDWVGPPNNNGVIKEVTINPDTTCGNDWVCEHRWRQIRNMVNFRNVVDGQPFTNWYDNGSNQVAFGRGNRGFIVFNNDDWTFSLTLQTGLPAGTYCDVISGDKINGNCTGIKIYVSDDGKAHFSISNSAEDPFIAIHAESKL	6.12 ± 0.67	7.06 ± 0.1	25 ± 4.2	31.3 ± 2.5	–
MVPRIFAPAYVSVCLLLLCPREVIAPAGSEPWLCQPAPRCGDKIYNPLEQCCYNDAIVSLSETRQCGPPCTFWPCFELCCLDSFGLTNDFVVKLKVQGVNSQCHSSPISSKCESRRRFP [Q6UWQ7]	–	–	–	–	percentage of EdU-negative (hTERT-HMEC; [6]): 5.54 ± 1.2%; percentage of EdU-negative (hTERT-HMEC; [7]): 6.18 ± 1.3%; percentage of EdU-negative (MCF7; [6]): 24.7 ± 0.71%; percentage of EdU-negative (MCF7; [7]): 25.6 ± 1.1%
MVAALLGGGGEARGGTVPGAWLCLMALLQLLGSAPRGSGLAHGRRLICWQALLQCQGEPECSYAYNQYAEACAPVLAQHGGGDAPGAAAAAFPASAASFSSRWRCPSHCISALIQLNHTRRGPALEDCDCAQDENCKSTKRAIEPCLPRTSGGGAGGPGAGGVMGCTEARRRCDRDSRCNLALSRYLTYCGKVFNGLRCTDECRTVIEDMLAMPKAALLNDCVCDGLERPICESVKENMARLCFGAELGNGPGSSGSDGGLDDYYDEDYDDEQRTGGAGGEQPLDDDDGVPHPPRPGSGAAASGGRGDLPYGPGRRSSGGGGRLAPRGAWTPLASILLLLLGPLF	4.96 ± 0.62	5.68 ± 0.97	24.6 ± 0.7	26.9 ± 0.34	–
